Measurements taken from the supplement of paper PMC10065799, “High-throughput profiling of sequence recognition by tyrosine kinases and SH2 domains using bacterial peptide display” (eLife, 2023).

Biological target: FGFR1 (UniProt P11362)
Test: phosphorylation enrichment, bacterial display (enrichment ratio); higher = better substrate or ligand; peptides without Tyr show the background
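Also: 11-residue human phosphosite peptides and single-mutation variants displayed on the E. coli surface, counted by deep sequencing, each peptide's frequency after selection divided by its frequency in the unselected input library; frequency after pTyr selection over input frequency; kinase dosed for 20-30% of maximal phosphorylation in three min.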

FGFR1, sequence (P11362 whole entry, looked up): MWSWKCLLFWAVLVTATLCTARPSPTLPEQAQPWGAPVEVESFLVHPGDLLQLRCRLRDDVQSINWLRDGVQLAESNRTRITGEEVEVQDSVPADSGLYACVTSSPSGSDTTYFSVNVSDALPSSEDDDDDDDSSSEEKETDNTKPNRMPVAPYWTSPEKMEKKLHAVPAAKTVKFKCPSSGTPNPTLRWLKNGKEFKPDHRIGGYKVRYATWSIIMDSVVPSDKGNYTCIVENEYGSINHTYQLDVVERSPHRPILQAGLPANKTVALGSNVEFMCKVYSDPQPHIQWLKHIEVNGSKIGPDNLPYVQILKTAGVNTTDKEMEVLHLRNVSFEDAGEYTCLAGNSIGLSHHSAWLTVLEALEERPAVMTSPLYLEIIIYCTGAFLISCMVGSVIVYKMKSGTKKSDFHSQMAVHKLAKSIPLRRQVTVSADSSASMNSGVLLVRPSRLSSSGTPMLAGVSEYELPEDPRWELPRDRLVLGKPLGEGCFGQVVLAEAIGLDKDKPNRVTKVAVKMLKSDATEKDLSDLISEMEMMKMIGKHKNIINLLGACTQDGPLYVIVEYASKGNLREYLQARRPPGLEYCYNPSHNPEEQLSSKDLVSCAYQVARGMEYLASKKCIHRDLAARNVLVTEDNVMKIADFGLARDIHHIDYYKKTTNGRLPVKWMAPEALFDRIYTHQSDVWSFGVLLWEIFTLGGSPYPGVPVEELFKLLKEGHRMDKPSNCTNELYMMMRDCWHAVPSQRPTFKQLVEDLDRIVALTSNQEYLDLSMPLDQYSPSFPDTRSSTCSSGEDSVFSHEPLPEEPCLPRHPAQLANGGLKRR

| Sequence | phosphorylation enrichment |
| --- | --- |
| PVQAAYRKVVA [HBB_Y131_Q132R] | 0.367 |
| GTVRDYPDFNP [ANXA3_Y15_S19N] | 0.403 |
| LAIEWYVVVCK [RHO_Y136_R135W] | 1.45 |
| IHETTYNSIMK [ACTA1_Y281] | 0.384 |
| VIKDKYPQARF [APTX_Y209_K211Q_YF] | 0.367 |
| ERQIRYLNHQL [CEP152_Y268] | 0.412 |
| HLSPEYKQNEI [GJB1_Y243_R238H] | 0.857 |
| FDDIAHIRKTL [PIK3CA_Y1021_Y1021H] | 0.529 |
| SIKDKYVTAVF [KCNH2_Y611_L615V_YF] | 0.491 |
| KNKLNYTLPQD [NRAP_Y523] | 0.419 |
| DVCKKYAEAKD [ALB_Y343_N342K] | 0.627 |
| GSLEDYVRETN [GIMAP6_Y176] | 0.501 |
| KKHIPYRQHKS [CSNK1G2_Y206_E208Q] | 1.28 |
| RPYVYYYSYLL [PTEN_Y177_R173P] | 7.24 |
| PVKDGYQMAQP [CSF1R_Y873_L868P] | 1.05 |
| KNITEYCRHLI [RECQL_Y492_D495H] | 0.526 |
| RPSELYYSKIS [SMG1_Y2253_G2258S] | 5.05 |

| Sequence | phosphorylation enrichment |
| --- | --- |
| FSGDFYRIQGR [DDR2_Y741_YF] | 0.509 |
| NTCNRYCRDEI [ITGB3_Y660] | 0.492 |
| LTDTVYSSSSA [OR4C12_Y71_I67T] | 0.694 |
| AEEKEYHAEGG [EGFR_Y869] | 0.474 |
| SIKDKYVTVLY [KCNH2_Y611_A614V] | 0.68 |
| DPASAYADEVK [ETNPPL_Y189_S185P] | 0.473 |
| PTTKTYFRHFD [HBA1_Y43_P45R] | 0.65 |
| LLNAIYLSAKR [SERPING1_Y294_W299R] | 0.617 |
| TENAGYYFRVS | 0.82 |
| GSRGKYSSGFH [ATM_Y332_R337H] | 0.452 |
| HILQLYRCREE [ALPK3_Y342_T338I] | 0.763 |
| RPSELYFSKIG [SMG1_Y2253_YF] | 0.641 |
| KVMANYMYKAG [MAML2_Y513] | 0.529 |
| KPAFSYTSSST [SIM1_Y356] | 0.415 |
| EERKTYVNTML [TEK_Y1102_T1106M] | 0.428 |
| DAAEDYAEGVR [DHODH_Y194] | 0.561 |

Biological target: EPHB1 (UniProt P54762)
Test: as above

EPHB1, sequence (P54762 whole entry, looked up): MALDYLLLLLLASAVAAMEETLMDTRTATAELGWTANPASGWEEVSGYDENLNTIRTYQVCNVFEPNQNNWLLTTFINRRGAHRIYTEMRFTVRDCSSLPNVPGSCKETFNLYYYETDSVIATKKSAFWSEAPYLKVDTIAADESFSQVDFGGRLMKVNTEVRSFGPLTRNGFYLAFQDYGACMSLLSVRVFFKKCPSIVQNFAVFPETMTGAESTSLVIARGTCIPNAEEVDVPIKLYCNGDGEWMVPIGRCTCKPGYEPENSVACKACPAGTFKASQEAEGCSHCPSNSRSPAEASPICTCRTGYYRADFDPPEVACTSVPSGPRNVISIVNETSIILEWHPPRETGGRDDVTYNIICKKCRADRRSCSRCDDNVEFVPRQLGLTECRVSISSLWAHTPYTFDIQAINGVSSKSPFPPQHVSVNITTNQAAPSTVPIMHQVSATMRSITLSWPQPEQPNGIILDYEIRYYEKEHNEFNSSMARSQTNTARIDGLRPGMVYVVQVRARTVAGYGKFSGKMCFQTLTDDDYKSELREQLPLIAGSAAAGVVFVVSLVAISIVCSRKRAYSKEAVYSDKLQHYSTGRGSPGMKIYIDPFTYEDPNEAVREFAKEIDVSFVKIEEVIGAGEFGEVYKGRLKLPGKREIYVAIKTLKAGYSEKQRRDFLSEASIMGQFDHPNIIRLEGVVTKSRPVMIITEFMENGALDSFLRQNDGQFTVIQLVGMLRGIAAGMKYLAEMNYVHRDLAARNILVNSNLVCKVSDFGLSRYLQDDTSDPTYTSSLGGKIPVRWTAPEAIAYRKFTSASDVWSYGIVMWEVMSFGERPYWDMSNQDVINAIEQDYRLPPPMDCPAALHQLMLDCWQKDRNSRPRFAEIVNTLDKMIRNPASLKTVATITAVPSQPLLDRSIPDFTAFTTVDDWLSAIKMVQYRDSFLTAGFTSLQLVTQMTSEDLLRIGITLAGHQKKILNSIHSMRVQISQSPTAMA

| Sequence | phosphorylation enrichment |
| --- | --- |
| PVQAAYRKVVA [HBB_Y131_Q132R] | 0.199 |
| GTVRDYPDFNP [ANXA3_Y15_S19N] | 0.519 |
| LAIEWYVVVCK [RHO_Y136_R135W] | 1.8 |
| IHETTYNSIMK [ACTA1_Y281] | 0.332 |
| VIKDKYPQARF [APTX_Y209_K211Q_YF] | 0.436 |
| ERQIRYLNHQL [CEP152_Y268] | 0.373 |
| HLSPEYKQNEI [GJB1_Y243_R238H] | 0.68 |
| FDDIAHIRKTL [PIK3CA_Y1021_Y1021H] | 0.51 |
| SIKDKYVTAVF [KCNH2_Y611_L615V_YF] | 0.48 |
| KNKLNYTLPQD [NRAP_Y523] | 0.409 |
| DVCKKYAEAKD [ALB_Y343_N342K] | 0.72 |
| GSLEDYVRETN [GIMAP6_Y176] | 0.438 |
| KKHIPYRQHKS [CSNK1G2_Y206_E208Q] | 2.12 |
| RPYVYYYSYLL [PTEN_Y177_R173P] | 2.64 |
| PVKDGYQMAQP [CSF1R_Y873_L868P] | 0.451 |
| KNITEYCRHLI [RECQL_Y492_D495H] | 0.51 |
| RPSELYYSKIS [SMG1_Y2253_G2258S] | 2.17 |

| Sequence | phosphorylation enrichment |
| --- | --- |
| FSGDFYRIQGR [DDR2_Y741_YF] | 0.543 |
| NTCNRYCRDEI [ITGB3_Y660] | 0.567 |
| LTDTVYSSSSA [OR4C12_Y71_I67T] | 0.323 |
| AEEKEYHAEGG [EGFR_Y869] | 0.623 |
| SIKDKYVTVLY [KCNH2_Y611_A614V] | 0.519 |
| DPASAYADEVK [ETNPPL_Y189_S185P] | 0.628 |
| PTTKTYFRHFD [HBA1_Y43_P45R] | 0.546 |
| LLNAIYLSAKR [SERPING1_Y294_W299R] | 0.659 |
| TENAGYYFRVS | 0.491 |
| GSRGKYSSGFH [ATM_Y332_R337H] | 0.417 |
| HILQLYRCREE [ALPK3_Y342_T338I] | 0.924 |
| RPSELYFSKIG [SMG1_Y2253_YF] | 0.49 |
| KVMANYMYKAG [MAML2_Y513] | 0.505 |
| KPAFSYTSSST [SIM1_Y356] | 0.467 |
| EERKTYVNTML [TEK_Y1102_T1106M] | 0.385 |
| DAAEDYAEGVR [DHODH_Y194] | 0.549 |

Biological target: MERTK (UniProt Q12866)
Test: as above

MERTK, sequence (Q12866 whole entry, looked up): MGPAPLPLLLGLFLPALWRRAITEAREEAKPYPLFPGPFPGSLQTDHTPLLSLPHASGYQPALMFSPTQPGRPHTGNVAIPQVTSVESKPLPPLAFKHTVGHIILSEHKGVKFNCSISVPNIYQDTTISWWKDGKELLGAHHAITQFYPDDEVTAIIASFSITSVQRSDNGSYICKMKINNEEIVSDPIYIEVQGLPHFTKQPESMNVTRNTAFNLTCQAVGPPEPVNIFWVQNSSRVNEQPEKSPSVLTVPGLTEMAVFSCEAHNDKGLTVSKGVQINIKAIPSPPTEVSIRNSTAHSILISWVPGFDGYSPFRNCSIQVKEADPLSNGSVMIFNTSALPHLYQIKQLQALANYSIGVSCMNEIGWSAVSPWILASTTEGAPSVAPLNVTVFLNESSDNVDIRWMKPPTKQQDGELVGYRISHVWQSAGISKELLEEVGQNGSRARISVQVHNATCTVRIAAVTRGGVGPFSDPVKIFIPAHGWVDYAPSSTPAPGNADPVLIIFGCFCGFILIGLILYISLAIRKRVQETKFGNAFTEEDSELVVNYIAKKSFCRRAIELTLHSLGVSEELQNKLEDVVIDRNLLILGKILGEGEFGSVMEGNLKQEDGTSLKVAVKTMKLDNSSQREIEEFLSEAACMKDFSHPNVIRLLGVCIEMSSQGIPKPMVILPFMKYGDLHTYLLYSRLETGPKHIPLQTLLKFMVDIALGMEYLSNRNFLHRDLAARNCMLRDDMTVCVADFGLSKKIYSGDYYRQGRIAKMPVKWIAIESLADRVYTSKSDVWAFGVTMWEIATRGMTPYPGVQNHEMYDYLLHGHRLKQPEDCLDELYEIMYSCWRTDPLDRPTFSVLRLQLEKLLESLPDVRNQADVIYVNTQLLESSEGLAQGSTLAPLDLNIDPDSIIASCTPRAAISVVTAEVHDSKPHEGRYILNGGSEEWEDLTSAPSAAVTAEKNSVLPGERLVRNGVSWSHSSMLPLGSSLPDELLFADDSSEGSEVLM

| Sequence | phosphorylation enrichment |
| --- | --- |
| PVQAAYRKVVA [HBB_Y131_Q132R] | 0.348 |
| GTVRDYPDFNP [ANXA3_Y15_S19N] | 0.304 |
| LAIEWYVVVCK [RHO_Y136_R135W] | 0.676 |
| IHETTYNSIMK [ACTA1_Y281] | 0.3 |
| VIKDKYPQARF [APTX_Y209_K211Q_YF] | 0.406 |
| ERQIRYLNHQL [CEP152_Y268] | 0.382 |
| HLSPEYKQNEI [GJB1_Y243_R238H] | 0.676 |
| FDDIAHIRKTL [PIK3CA_Y1021_Y1021H] | 0.416 |
| SIKDKYVTAVF [KCNH2_Y611_L615V_YF] | 0.443 |
| KNKLNYTLPQD [NRAP_Y523] | 0.347 |
| DVCKKYAEAKD [ALB_Y343_N342K] | 0.402 |
| GSLEDYVRETN [GIMAP6_Y176] | 0.442 |
| KKHIPYRQHKS [CSNK1G2_Y206_E208Q] | 1.07 |
| RPYVYYYSYLL [PTEN_Y177_R173P] | 5.81 |
| PVKDGYQMAQP [CSF1R_Y873_L868P] | 0.393 |
| KNITEYCRHLI [RECQL_Y492_D495H] | 0.43 |
| RPSELYYSKIS [SMG1_Y2253_G2258S] | 14.6 |

| Sequence | phosphorylation enrichment |
| --- | --- |
| FSGDFYRIQGR [DDR2_Y741_YF] | 0.421 |
| NTCNRYCRDEI [ITGB3_Y660] | 0.535 |
| LTDTVYSSSSA [OR4C12_Y71_I67T] | 0.58 |
| AEEKEYHAEGG [EGFR_Y869] | 0.403 |
| SIKDKYVTVLY [KCNH2_Y611_A614V] | 0.437 |
| DPASAYADEVK [ETNPPL_Y189_S185P] | 0.435 |
| PTTKTYFRHFD [HBA1_Y43_P45R] | 0.466 |
| LLNAIYLSAKR [SERPING1_Y294_W299R] | 0.947 |
| TENAGYYFRVS | 0.714 |
| GSRGKYSSGFH [ATM_Y332_R337H] | 0.452 |
| HILQLYRCREE [ALPK3_Y342_T338I] | 0.515 |
| RPSELYFSKIG [SMG1_Y2253_YF] | 0.791 |
| KVMANYMYKAG [MAML2_Y513] | 0.33 |
| KPAFSYTSSST [SIM1_Y356] | 0.417 |
| EERKTYVNTML [TEK_Y1102_T1106M] | 0.354 |
| DAAEDYAEGVR [DHODH_Y194] | 0.45 |

System: c-Src
Test: as above

| Sequence | phosphorylation enrichment |
| --- | --- |
| PVQAAYRKVVA [HBB_Y131_Q132R] | 0.421 |
| GTVRDYPDFNP [ANXA3_Y15_S19N] | 0.357 |
| LAIEWYVVVCK [RHO_Y136_R135W] | 0.852 |
| IHETTYNSIMK [ACTA1_Y281] | 1.04 |
| VIKDKYPQARF [APTX_Y209_K211Q_YF] | 0.44 |
| ERQIRYLNHQL [CEP152_Y268] | 0.399 |
| HLSPEYKQNEI [GJB1_Y243_R238H] | 0.532 |
| FDDIAHIRKTL [PIK3CA_Y1021_Y1021H] | 0.389 |
| SIKDKYVTAVF [KCNH2_Y611_L615V_YF] | 0.501 |
| KNKLNYTLPQD [NRAP_Y523] | 0.35 |
| DVCKKYAEAKD [ALB_Y343_N342K] | 0.53 |
| GSLEDYVRETN [GIMAP6_Y176] | 0.424 |
| KKHIPYRQHKS [CSNK1G2_Y206_E208Q] | 1.34 |
| RPYVYYYSYLL [PTEN_Y177_R173P] | 2.3 |
| PVKDGYQMAQP [CSF1R_Y873_L868P] | 0.574 |
| KNITEYCRHLI [RECQL_Y492_D495H] | 0.477 |
| RPSELYYSKIS [SMG1_Y2253_G2258S] | 2.96 |

| Sequence | phosphorylation enrichment |
| --- | --- |
| FSGDFYRIQGR [DDR2_Y741_YF] | 0.551 |
| NTCNRYCRDEI [ITGB3_Y660] | 0.5 |
| LTDTVYSSSSA [OR4C12_Y71_I67T] | 2.33 |
| AEEKEYHAEGG [EGFR_Y869] | 0.486 |
| SIKDKYVTVLY [KCNH2_Y611_A614V] | 0.403 |
| DPASAYADEVK [ETNPPL_Y189_S185P] | 0.416 |
| PTTKTYFRHFD [HBA1_Y43_P45R] | 0.545 |
| LLNAIYLSAKR [SERPING1_Y294_W299R] | 1.09 |
| TENAGYYFRVS | 0.421 |
| GSRGKYSSGFH [ATM_Y332_R337H] | 0.45 |
| HILQLYRCREE [ALPK3_Y342_T338I] | 0.577 |
| RPSELYFSKIG [SMG1_Y2253_YF] | 0.623 |
| KVMANYMYKAG [MAML2_Y513] | 0.296 |
| KPAFSYTSSST [SIM1_Y356] | 0.484 |
| EERKTYVNTML [TEK_Y1102_T1106M] | 0.362 |
| DAAEDYAEGVR [DHODH_Y194] | 0.45 |
